Measurements from PMC4848949, “Bacterial Expression and Kinetic Analysis of Carboxylesterase 001D from Helicoverpa armigera” (International Journal of Molecular Sciences, 2016).

substrate: CC(=O)Oc1cccc2ccccc12; experiment: purified protein; assay type: biochemical, Helicoverpa armigera; settings: 0.1 M sodium phosphate pH 7.0, 30 °C

Protein	Km	kcat
Trx/6×His/S-tag/001D (pET32a-001D) (Helicoverpa armigera) (protein, mature enzyme, signal peptide (residues 1-16) removed; N-terminal Trx/6×His/S-tag kept; E. coli BL21(DE3), Ni-NTA; about 79 kDa; full precursor 554 residues) DDEWREVRTAQGPVRGRKHPTADMYAFYNIPYATAPTGEDKFKAPLPGPVWLEPFDAVDERVVCPQAKLPMDIMKNVVEKENCLIANVFVPNTEEKNLSVVVYVHGGAFIIGSGNMIQATHLMKTNDFIMVSFNYRLGIHGFLCLGTEDAPGNAGMKDQVALLRWVQKNIASFGGNPDDVTIVGSSAGSASVDLLMLSKSAEGLFHRVIPESGGNLAAFTVQRDPVEIAKTHAKKLNFNNVDDIYALEEFYKTVPMELLTSDHFFDRTDATFVFGPCVERDTGDGAFLTESPLSILKSGNYRKLPLLYGFAEMEGLMRINVFELWKHKMNEKFSDFLPADLKFDSEEEREEVANKIKRFYFGDKPVGDENVLKYVDYFSDVYFAYSMLWAVKLHAEAGNNQVYLYEYSFVDEDTPLVPHTNVRGADHCTQTMAVYDMKNITHEDESLATPELQKMKKVVREIWHNFIKTGVPVPEGSWLPAWPAAGADRAPHMSLGERLELRGALLPERTRFWDDIYQRYYRDAVPPPTPPPRPRSEL	7.61(0.63) µM	2.29(0.08) s^-1
6×His/001D (pE1-001D) (Helicoverpa armigera) (protein, mature enzyme, signal peptide (residues 1-16) removed; N-terminal 6×His tag kept; E. coli BL21(DE3), Ni-NTA; about 63 kDa) DDEWREVRTAQGPVRGRKHPTADMYAFYNIPYATAPTGEDKFKAPLPGPVWLEPFDAVDERVVCPQAKLPMDIMKNVVEKENCLIANVFVPNTEEKNLSVVVYVHGGAFIIGSGNMIQATHLMKTNDFIMVSFNYRLGIHGFLCLGTEDAPGNAGMKDQVALLRWVQKNIASFGGNPDDVTIVGSSAGSASVDLLMLSKSAEGLFHRVIPESGGNLAAFTVQRDPVEIAKTHAKKLNFNNVDDIYALEEFYKTVPMELLTSDHFFDRTDATFVFGPCVERDTGDGAFLTESPLSILKSGNYRKLPLLYGFAEMEGLMRINVFELWKHKMNEKFSDFLPADLKFDSEEEREEVANKIKRFYFGDKPVGDENVLKYVDYFSDVYFAYSMLWAVKLHAEAGNNQVYLYEYSFVDEDTPLVPHTNVRGADHCTQTMAVYDMKNITHEDESLATPELQKMKKVVREIWHNFIKTGVPVPEGSWLPAWPAAGADRAPHMSLGERLELRGALLPERTRFWDDIYQRYYRDAVPPPTPPPRPRSEL	19.72(6.69) µM	0.35(0.05) s^-1
6×His/S-tag/001D (pET30a-001D) (Helicoverpa armigera) (protein, mature enzyme, signal peptide (residues 1-16) removed; N-terminal 6×His/S-tag kept; E. coli BL21(DE3), Ni-NTA; about 67 kDa) DDEWREVRTAQGPVRGRKHPTADMYAFYNIPYATAPTGEDKFKAPLPGPVWLEPFDAVDERVVCPQAKLPMDIMKNVVEKENCLIANVFVPNTEEKNLSVVVYVHGGAFIIGSGNMIQATHLMKTNDFIMVSFNYRLGIHGFLCLGTEDAPGNAGMKDQVALLRWVQKNIASFGGNPDDVTIVGSSAGSASVDLLMLSKSAEGLFHRVIPESGGNLAAFTVQRDPVEIAKTHAKKLNFNNVDDIYALEEFYKTVPMELLTSDHFFDRTDATFVFGPCVERDTGDGAFLTESPLSILKSGNYRKLPLLYGFAEMEGLMRINVFELWKHKMNEKFSDFLPADLKFDSEEEREEVANKIKRFYFGDKPVGDENVLKYVDYFSDVYFAYSMLWAVKLHAEAGNNQVYLYEYSFVDEDTPLVPHTNVRGADHCTQTMAVYDMKNITHEDESLATPELQKMKKVVREIWHNFIKTGVPVPEGSWLPAWPAAGADRAPHMSLGERLELRGALLPERTRFWDDIYQRYYRDAVPPPTPPPRPRSEL	12.51(2.14) µM	0.60(0.06) s^-1
